# Laboratory results published in PMC5584224, “Peptide-based PET imaging of the tumor restricted IL13RA2 biomarker” (Oncotarget, 2017).
# Values joined by “and” are separate entries in the source; they are usually repeats but may differ in a detail not shown here. Equal entries are not always repeated. Non-standard residues stand in square brackets, D forms with d. Residues, ends and D or L forms follow the SMILES beside them. *: point of attachment. Biotin = O=C1N[C@H]2[C@H](CS[C@H]2CCCCC(=O)*)N1; Ahx = NCCCCCC(=O)O
# Key:
# [1] = system: IL13RA2-expressing G48 cells; test: In vitro cell uptake assay with and without unlabeled Pep-1L blockade; assay type: cell-based, human
# Protocol: Previously, we reported that this cell line contains about 4,000,000 IL13RA2 binding sites.
# Figure 3 Cell uptake of [^64Cu]Pep-1L Uptake of [^64Cu]Pep-1L in IL13RA2-expressing G48 cells after 1, 3, and 4 h of exposure. […] The data were expressed as % injected dose (ID)/mg of protein present in each well with p values ≤ .005 considered statistically significant (n=6).
# The in vitro reactivity, binding affinity and specificity for [^64Cu]Pep-1L were determined using human GBM cell line G48, following previously reported methods. 1 × 10^5 cells were then seeded into each well of a 6-well culture. G48 cells were incubated overnight at 37°C with 5% CO2 in an incubator. […] The radioactivity was counted using the Wallac 1480 Wizard gamma counter (Perkin Elmer, Turku, Finland). […]
# The uptake data in each sample from each well and the standard counts for each condition were expressed as counts per minute (cpm) of activity and were decay corrected for elapsed time. The cpm values of each well were normalized to the amount of radioactivity added to each well and the protein concentration in the well and expressed as percent uptake relative to the control condition. The data were expressed as %ID/mg of protein present in each well with p values ≤ 0.005 considered statistically significant.
# in vitro = conditions: human, human serum
# Protocol: The in vitro serum stability of the radiotracer [^64Cu]Pep-1L in human serum was performed at different time points and was analyzed through radioTLC spotting (Figure 2).
# Figure 2 In vitro serum stability of [^64Cu]Pep-1L Reverse-phase C18 radio-TLC analysis of [^64Cu]Pep-1L over a 24 hour period post production.
# The in vitro serum stability of [^64Cu]Pep-1L was performed using human serum (Sigma Aldrich) following previously published methods [38, 48]. Approximately 0.037 MBq/10 μL of [^64Cu]Pep-1L was added to the serum vial, to a final volume of 100 μL and incubated at 37°C [35]. 1 μL of the sample mixture was removed and spotted on a reverse C18-TLC plate at 1 h, 2 h, 4 h, 18 h and 24 h after the radiotracer synthesis and the percentage of bound Cu-64 was determined through radioTLC analysis as mentioned above [48].
# [2] = system: B16F10-Tet-hIL13RA2 tumors; test: microPET/CT imaging, ROI analysis, in doxycycline-inducible B16F10-Tet-hIL13RA2 tumor model; assay type: in vivo, mice
# Protocol: (§1) 7 days after tumor cell implantations, mice were divided into induced and uninduced (control) groups (n=4/group). To induce hIL13RA2 expression, doxycycline was administered intraperitoneally (2.5 mg/mouse) every 12 hours for 2 days. After IL13RA2-induction, [^64Cu]Pep-1L was intravenously injected to mice bearing induced or control (uninduced) subcutaneous tumors and microPET/CT imaging was performed 4 h post intravenous injection. […] Other notable findings were that there was radiotracer accumulation in liver and kidney in both induced and control animals, which are primary organs for peptide clearance. […]
# (§2) B16F10 murine melanoma cell line was cultured in DMEM base media. […] Cell number was calculated using a hemocytometer and required number of B16F10 cells was suspended in DMEM media. […]
# (§3) Mice bearing subcutaneous tumors were grouped into two groups (n=4) and placed in an induction chamber containing ~2% isoflurane/oxygen then secured to a custom double bed for placement of tail vein catheters. […] Samples of tumor, blood, lung, liver, spleen, kidney, muscle and heart were harvested, weighed and then counted on the gamma counter with a standard dilution of the injectate. The percentage of the injected dose per gram of tissue (%ID/g) was calculated as described above with p values ≤ .05 considered statistically significant (n=4).
# in vivo = test: in vivo; parameters: species or system mice; conditions: athymic nude, mouse, iv, total radioactivity, tumor uptake
# Protocol: as §1, §2, §3
# [3] = Biodistribution in mice bearing IL13RA2-expressing G48 xenografts; assay type: in vivo; conditions: athymic nude, mouse, in vivo, iv, total radioactivity
# Protocol: (§4) Biodistribution studies with [^64Cu]Pep-1L were performed in mice bearing IL13RA2-expressing G48 tumors (n=4) to confirm in vivo binding. […] The uptake ratios for target to non-target (tumor: muscle) increased from 3.7 to 6.0 from 4 h to 24 h (Figure 4B).
# (§5) Figure 4 In vivo properties of [^64Cu]Pep-1L (A) biodistribution and (B) tumor-to-muscle (target: nontarget) ratio of [^64Cu]Pep-1L in mice bearing IL13RA2-expressing tumor xenografts 4h and 24h post injection (n=4) with p values ≤ .05 considered statistically significant.
# (§6) Athymic nude mice (Taconic Farms) were housed in a pathogen-free facility of the Animal Research Program at Wake Forest School of Medicine under a 12:12-h light/dark cycle and fed ad libitum. All animal experiments were conducted under IACUC approved protocols in compliance with the guidelines for the care and use of research animals established by Wake Forest Medical School Animal Studies Committee. IL13RA2-expressing G48 tumors cells (1 × 10^5 cells suspended in 10 μL) were implanted in the left flank of nude mice (25-30 g) as described previously. The presence of viable tumors was confirmed through bioluminescence imaging. Standard biodistribution studies were performed in the same nude mice with flank tumors (n=4) at 10-15 days after tumor implantation. Mice were anesthetized with 1% isoflurane-oxygen and approximately 3.7- 4.6 MBq of [^64Cu]Pep-1L was administered via tail vein injection. […] Peptide concentration of 15 mg/kg was used as the blocking agent and was intravenously injected via tail vein 15 min prior to the radiotracer. The tumor and organs of interest were dissected and gamma counted using Wallac 1480 Wizard gamma counter (Perkin Elmer, Turku, Finland). The concentration of the radioactivity in the tumor and organs were expressed in percentage injected dose per gram (%ID/g) of radioactivity with p values ≤ .05 considered statistically significant and uptake ratio of tumor-to-muscle was calculated.
# [4] = system: IL13RA2-expressing G48 tumors; test: as above; assay type: in vivo; conditions: G48 tumor bearing mice, 24 h post injection, non-blockade vs blockade group
# Protocol: as §4, §5, §6
# [5] = cited from earlier work
# Source text: Pep-1L was conjugated with NOTA, a chelator that can form a six-coordinate complex with Cu-64 that results in a high stability constant (log K=21.6) by CPC scientific Inc.. […] The Cu-64 radiolabeling conditions for Pep-1L were well optimized in this work for high radiochemical purity of >98%, without any need for additional purification methodologies with a specific activity of 32-35 MBq/μg (Figure 1).
compound,measurement,setting,value
"CSCC[C@H](NC(=O)[C@H](CCC(=O)O)NC(=O)CNC(=O)[C@H](CS)NC(=O)[C@H](C)N)C(=O)NCC(=O)N[C@@H](Cc1c[nH]c2ccccc12)C(=O)N[C@H](C(=O)N[C@@H](CCCNC(=N)N)C(=O)N[C@@H](CS)C(=O)NCC(=O)NCC(=O)NCC(=O)N[C@@H](CO)C(=O)NCCCCCC(=O)N[C@@H](CCCCN)C(=O)N[C@@H](CCCCNC(=O)CCCC[C@@H]1SC[C@@H]2NC(=O)N[C@@H]21)C(N)=O)C(C)C [[^64Cu]Pep-1L, metal not drawn] (H-ACGEMGWVRCGGGS[Ahx]KK(Biotin)-NH2)",cell uptake in G48 cells under binding site blockade with unlabeled Pep-1L,"[1]; 0.0185 MBq/well, 37°C, 1, 3, 4 h, blocker 5 μM (50x excess) unlabeled peptide 15 min before tracer, gamma counting, %ID/mg protein",significantly inhibited
same,course of cell uptake over time,"[1]; 37°C, 1 to 4 h exposure",continued increase
same,"remaining at 24 h, 0.37 MBq/mL",in vitro,~90%
same,"tumor accumulation, doxycycline-induced vs non-induced (ROI analysis of microPET/CT)","[2]; athymic nude mice, 4.62-5.5 MBq i.v., 20 min scan 4 h post injection, doxycycline 2.5 mg/mouse i.p. every 12 h for 2 days, n=4/group",~ 3 fold
same,"binding of induced vs uninduced tumors (PET/CT and post-necropsy biodistribution, abstract)","[2]; summary of PET/CT and post-necropsy biodistribution, doxycycline pretreatment",3-4 fold
same,tissue uptake at 4 h,in vivo; doxycycline-induced tumors,14.1 ± 0.246 %ID/g
same,tissue uptake at 4 h,in vivo; non-induced tumors,4.179 ± 0.007 %ID/g
same,tissue to tissue ratio at 4 h,[3],3.7
same,tissue to tissue ratio at 24 h,[3],6
same,tissue uptake at 24 h,"[3]; blood uptake, 24 h non-blockade",0.62 ± 0.579 %ID/g
same,tissue uptake at 4 h,"[3]; brain uptake, 4 h",~0.013 %ID/g
same,tissue uptake at 24 h,"[3]; brain uptake, 24 h",~0.009 %ID/g
same,tissue uptake at 24 h,"[3]; heart uptake, 24 h non-blockade",1.21 ± 1.01 %ID/g
same,tissue uptake at 24 h,"[3]; kidney uptake, 24 h non-blockade",17.4 ± 1.41 %ID/g
same,tissue uptake at 24 h,"[3]; liver uptake, 24 h non-blockade",9.86 ± 1.59 %ID/g
same,tissue uptake at 24 h,"[3]; lung uptake, 24 h non-blockade",3.58 ± 1.08 %ID/g
same,tissue uptake at 24 h,"[3]; muscle uptake, 24 h non-blockade",0.41 ± 0.038 %ID/g
same,tissue uptake at 24 h,"[3]; tumor uptake, 24 h non-blockade",2.43 ± 0.626 %ID/g
same,tissue uptake at 4 h,"[3]; nude mice with G48 flank tumors, 3.7-4.6 MBq i.v. tail vein, 4 h post injection, gamma counting, mean ± SD, n=4, read-out: tumor uptake, 4 h",1.38 ± 0.09 %ID/g
same,blockade of tumor uptake by pre-injected unlabeled peptide,[4],5 fold and 3 fold
"O=C(O)CN1CCN(CC(=O)O)CCN(CC(=O)O)CC1 [NOTA, 1,4,7-triazacyclononane-1,4,7-triacetic acid]",stability constant (log K) of six-coordinate complex with Cu-64,[5],21.6
